This series can be described thus: soluble on expression in E. coli; label from the status in PepcDB or PDB records.
Regarding “MSLTKSGLAHAAGVSTSVIDGLVKQGVFETVFLPAPPVVAEPDPDYVEPRLEGPQKQAASEIIEDVRKGGFHVSLIDGVTGSGKTEVYFEAVAETLRQGKQVLILLPEIALTAAFLERFQDRFGAKPAEWHSDLSPRMREKVWRQAVTGEIKVVAGARSALFLPFDNLGLIIVDEEHDPAYKQEDRVFYNARDMAVVRARIAEFPVVLVSATPSVESQVNGSSGRYNTIHLHTRFGDAAMPDLHLVDMRRHPPERGGFLSPVLLRGIGKTIEKGEQSLLFLNRRGYAPLTLCRVCGHRFQCPQCSSWLVEHRFRNQLQCHQCGHNEPTPDHCPECGTFDHLVACGPGVERIAEEVEKHFPEARTIVLSSDLMGVKRLRLELEAIVKGEADIVIGTQLVAKGHNFPLMTLVGIVDADLGLANGDPRAAERTFQLLSQVTGRAGRTGLKSHGLLQTYQPQHPVMQAIVSGDASAFYEREIVEREKAVLPPFGRLASIIVSADTRAEAETHARGLRAAAPQVTGIMLLGPAEAPLALIRGRHRFRLLVHGRRNSDMQSFLRTLLASGPKERGSVHVQLDIDPQSFLEGHHHHHH”, the “soluble on expression in E. coli” value was “not soluble”.
Consider “MGSDKIHHHHHHMKIGFLGFGKSNRSLLKYLLNHQEAKFFVSEAKTLDGETKKFLEEHSVEYEEGGHTEKLLDCDVVYVSPGIKPDTSMIELLSSRGVKLSTELQFFLDNVDPKKVVGITGTDGKSTATALMYHVLSGRGFKTFLGGNFGTPAVEALEGEYDYYVLEMSSFQLFWSERPYLSNFLVLNISEDHLDWHSSFKEYVDSKLKPAFLQTEGDLFVYNKHIERLRNLEGVRSRKIPFWTDENFATEKELIVRGKKYTLPGNYPYQMRENILAVSVLYMEMFNELESFLELLRDFKPLPHRMEYLGQIDGRHFYNDSKATSTHAVLGALSNFDKVVLIMCGIGKKENYSLFVEKASPKLKHLIMFGEISKELAPFVGKIPHSIVENMEEAFEKAMEVSEKGDVILLSPGGASFDMYENYAKRGEHFREIFKRHGGDEV”, for which the “soluble on expression in E. coli” value was “not soluble”.
The value for “MSQNDLNKEKALVVFSGGQDSTTCLFYAKKHFKEVELVTFNYGQRHDKEIEVAKKIAKEQNLKHHILDMSLLSQLTPNALTQHELSIEDNDDGIPNTFVPARNLLFLSFAGALAYQIHAKHIITGVCETDFSGYPDCRDSFIKSMNVTLSLSMDKDFVIHTPLMWLDKAQTWALSDKLGVLDYIRHNTLTCYNGIIGDGCGECPACHLRARGLKHYLEHKGEE” was “not soluble”.
With “MANSAGSMQQILNQFNHVVAIGGGHGLGRVLSSLDFLGNRLTGIVATTDNGGSTGRLRAEQDCIAWGDLRNCLSQLAHRPSVGSQLFEYRFQGETELSGHNLGNLMLLALDKLCVRPLEAVNLIRHMLKIETNIIPMSEQPTHLVALQASGSKVFGEVNVDKMNEAPIALCLEPQVNATTEACEAIRRADLIILGPGSFLTSIMPPLLLPCFAKALAMTTAPVVFIDNLNEEASPAGQFSIEQRISWCHQVIGKPVITKVLRHSEQLRLGTLVNYFPLRNRHNPQLHDQASLRDALCAVLRIKSGLPLETLVSLEHHHHHH”, the “soluble on expression in E. coli” value was “not soluble”.
The value for “ELNHRVKNTLATVQAIASLTVNSSTSLDSFRKSFDARLFALSQARAEWMSTELADLLAQLQDVNGGQHRITFTGDP” was “not soluble”; that for “MAHHHHHHMGAPLREDPYNIKTPISDGTTIIGIIYEHGVMLACDTRTSSGTLVSNKCSRKINRINENIYACRSGASAHSQKVIELIKHFCLSMKCENRKKGRFHEDEVITDDLANEEDIDLSAINNPFGLAQNMDPNYVTKHKYFYEDKFMDFNPLVENVAHMTKKLLYANNHFLSCGLILGGYDKEKKQQLYSVNLNGSIVQRFDYAVSGSGSVYIQSYLQDKYKKNMSKKECFELILGCVKYAMYNDNSSGGIVRIVNMTKLFVEEFTVTNTQLHFDY” was “soluble”; that for “MNKQLLSCSLKSGKQVTMVVASVATDGVDQQVEISYYDQKVIGNGSFGVVFLAKLSTTNEMVAIKKVLQDKRFKNRELQIMRKLNHPNIVKLKYFFYSSGEKKDELYLNLILEYVPETVYRVARHYSKQRQQIPMIYVKLYMYQLLRSLAYIHSIGICHRDIKPQNLLIDPESGVLKLCDFGSAKYLVRNEPNVSYICSRYYRAPELIFGATNYTNSIDVWSAGTVMAELLLGQPIFPGDSGVDQLVEIIKVLGTPTREQIQSMNPNYKEFKFPQIKAHPWNKVFRVHTPAEAIDLISKIIEYTPTSRPTPQAACQHAFFDELRNPDARLPSGRPLPTLEMDGPMGTGEVSTTSGDVAGPSA” was “not soluble”.
The same measure for “RRMVALYDYDPRESSPNVDVEAELTFCTGDIITVFGEIDEDGFYYGELNGQKGLVPSNFLEEV”: “soluble”.
The value for “MAHHHHHHMCVRSMDPTKKGNENFPQRNVAIEEANFDSAFPAFNVHYNVEPKDWRHIELVEKEKQDFLLGIKKEIRLMQEDKNKINYVLNVQKQQLEELQFLLNRMKHFRRKSLIAEGEEQLKVDLLAMPRYLRTGTLFSVDTLGEENALRDFNELHNYSVDKSRLTTRGSFYHNLAEQWVG” was “not soluble”; that for “MGSSHHHHHHSSGLVPRGSHMSVPLYGFTSICGRRPEMEDAVSTIPRFLQSSSGSMLDGRFDPQSAAHFFGVYDGHGGSQVANYCRERMHLALAEEIAKEKPMLCDGDTWLEKWKKALFNSFLRVDSEIESVAPETVGSTSVVAVVFPSHIFVANCGDSRAVLCRGKTALPLSVDHKPDREDEAARIEAAGGKVIQWNGARVFGVLAMSRSIGDRYLKPSIIPDPEVTAVKRVKEDDCLILASDGVWDVMTDEEACEMARKRILLWHKKNAVAGDASLLADERRKEGKDPAAMSAAEYLSKLAIQRGSKDNISVVVVDLKPRRKLK” was “soluble”.
“MAHHHHHHMATCTLSVARFGRPSTFAHRRVRWLPPYDGNSTCLDWWLPTDAEAADTAADGGAAAIRVRALAVILPGLTGSSKEFYVRRMARQLLRAHMATCVLTSRGVADTHLERPQIFSALFAKDLRHIMQACMTREKVQECLLRRISPLQSSDHHKGAVPIIGVAFSLGGRILTNYVSEQGEAEAPSGFDAVYTITSPHNVSDGAAALRMLLSKLLYGSTLYKRLRAYYERHKNVLQNLPDIDKKLLMDGDSPLVKRLRTVQDFGEFITGPHVGFPGAEAYYVAASSFRRLHHSRMPQVCVVVANDPIYGPPQPAPRWLHLIDMHCGGLVYVEMPVGGHLGFLGCPWSEWTQAPNEMEHLVLRSLIHFIKSADTQAAEAKTNE”: the “soluble on expression in E. coli” value is “soluble”.
With “MGSDKIHHHHHHMLKVDPTSPELSILLANPRGFCAGVDRAISIVERALELFEPPIYVRHEVVHNRYVVENLKQRGALFIDELDQVPDNSIVIFSAHGVSQAVRKEAKNRGLKVFDATCPLVTKVHLQVTRASRKGIECILIGHEGHPEVEGTMGQYDNPKGGVYLIESPEDVNNLQVNNPDNLCFVTQTTLSVDDTLDIITALQKRFPSIEGPRKDDICYATQNRQDAVRSMSSEVDLLIVVGSKNSSNSNRLRELAEKTGTQSYLVDTAADVEAMWFDGVKKVAVTAGASAPEVLVQQVVNAIAKLAPSIITEVEGRKEDTVFAVPAELR”, the “soluble on expression in E. coli” value was “not soluble”.
On to “CHEASAIGMKDTIGVGKGTVIFDDFEEADAIFVIGQNPGTNHPRMLEPLREAVKRGAQVICLNPLKERGLERFQNPQMPIEMLSNGSEPTNTAYLRPALGGDMAVFRGIAKFLLQWEREALQNGGKAVFDREFIKQHTIGIDEYLAEVDATSWEHIAEQSGLDLSEIEMVASMYRRAERVIMCWAMGLTQHRHSVPTIKEVANVQMLRGNVGKPGAGLSPVRGHSNVQGDRTMGIDEKPSDLLLDRIESRFNFD”, for which the “soluble on expression in E. coli” value is on record as “not soluble”.
The same measure for “MEENGMKSKILIFGGTGYIGNHMVKGSLKLGHPTYVFTRPNSSKTTLLDEFQSLGAIIVKGELDEHEKLVELMKKVDVVISALAFPQILDQFKILEAIKVAGNIKRFLPSDFGVEEDRINALPPFEALIERKRMIRRAIEEANIPYTYVSANCFASYFINYLLRPYDPKDEITVYGTGEAKFAMNYEQDIGLYTIKVATDPRALNRVVIYRPSTNIITQLELISRWEKKIGKKFKKIHVPEEEIVALTKELPEPENIPIAILHCLFIDGATMSYDFKENDVEASTLYPELKFTTIDELLDIFVHDPPPPASAAF”: “soluble”; for “MKKRVHILIMTLMLIVACVGCSGSSDNPPPANSLHSASTIPISAMPSFSTPSPTVEDTENQQSKTVNYLINSMTLEEKIGQIFIVAFRKGKSSRPLKVLDNSTKLKIQNFNPGGIILFSENIDTIPQTQKLIRDMQEASKIPMFIAVDEEGGRIARIGNNPKMHSTKIPSAQTIGLADDPELAYEAGRILGAELSALGFNMNFAPVADVNTNPDNPVIGDRSFGSDPYKVGLMVQAMSKGMQEQNVCTVLKHFPGHGDTSYDSHLGQVVINHDIERLRQIELTPFKMGIKAGADGVMTAHIIMPNITGSNLPATLSEEILSGLLRNELKHEKLIITDAMEMKAISNYWSSSKAAVMAFKAGADIILMPESFEEAYNGILKAVKDGEITEERLNQSLQRILALKFERNILANKESSVDPEKVLGRQEHTDIVVKIMQKAEEQNIP”: “not soluble”; for “MGSYSSDDVEVIREAGRAQGLATILAIGTATPPNCVAQADYADYYFRVTKSEHMVDLKEKFKRICEKTAIKKRYLALTEDYLQENPTMCEFMAPSLNARQDLVVTGVPMLGKEAAVKAIDEWGLPKSKITHLIFCTTAGVDMPGADYQLVKLLGLSPSVKRYMLYQQGCAAGGTVLRLAKDLAENNKGSRVLIVCSEITAILFHGPNENHLDSLVAQALFGDGAAALIVGSGPHLAVERPIFEIVSTDQTILPDTEKAMKLHLREGGLTFQLHRDVPLMVAKNIENAAEKALSPLGITDWNSVFWMVHPGGRAILDQVERKLNLKEDKLRASRHVLSEYGNLISACVLFIIDEVRKRSMAEGKSTTGEGLDCGVLFGFGPGMTVETVVLRSVRVTAAVANGN”: “soluble”.
The value for “MGGSHHHHHHGMASALVRISKPKTFQAYLDDCHRRYSCAHCRAHLANHDDLISKSFQGSQGRAYLFNSVVNVGCGPAEERVLLTGLHAVADIHCENCKTTLGWKYEQAFESSQKYKEGKYIIELNHMIKDNGWD” was “not soluble”.
With “MPQLQKEWFDTWFDTPYYHILYSNRDESEAEVFLTNLMNHMAVPKGASILDLPCGKGRHTLFLAEKGYTLTGADLSVASIALAQSHAPAGVTFLVHDLRKPAWNESFDYVLNLFTSFGYFETEAEDRAAFTTLSKALKSGGSLVIDFMNVTRAVNLLKEEETKVMEGIEFQLKRYVKDGYIHKEIRFEADNTPFFFTERVKALTLDDFKEFFTFAGLTLVDTFGSYQLDAYDAAESDRLIMIAKKLEHHHHHH”, the “soluble on expression in E. coli” value is on record as “soluble”.
The same measure for “MGSDKIHHHHHHMELQVFTNEQFGEVRTATINNQIYFNLNDCCQILELSNPRKTIERLNKDGVTTSDIIDSLGRTQQANFINESNFYKLVFQSRKPEAEKFADWVTSEVLPSIRKHGAYMTEQTLEQALTSPDFLIRLANELKEEKERSRQLEAEKSILSVENMVMKPKADYFDDLVDRNLLTSFRETAKQLKVKERRFIQFLLDKKYVYRDKKGKLMPFADKNNGLFEVKESVNEKTNWAGTQTLITPKGRETFRLLFI”: “not soluble”; for “MGVEKTIVGIAGKIAAGKTTVAKFLEELGFCRISCSEPLLDILTGNVSEYSWVPEVNFKGEPTRENLIELGRLLKEKYGEDILIRLAIDKLRRCKNIAIDGVRSLGEVEAIKRMGGIIIYIEARAEVRFERLRKRCSEKDRGIKTLQDLLRFDEWEERLYSTTNIKEKADFVILNEGSLEELKKKVREILREHSN”: “not soluble”.

The values are drawn from the DeepSol protein solubility set.
